Ends that are not written are not given here. * marks the point of attachment. FITC = O=C1OC2(c3ccc(O)cc3Oc3cc(O)ccc32)c2ccc(NC(=S)*)cc21; Ahx = NCCCCCC(=O)O
B1: myeloid cell leukemia-1 (MCL1), residues 163-326 (domain or fragment, human, UniProt Q07820 163-326, looked up)
chain: TPPPAEEEEDELYRQSLEIISRYLREQATGAKDTKPMGRSGATSRKALETLRRVGDGVQRNHETAFQGMLRKLDIKNEDDVKSLSRVMIHVFSDGVTNWGRIVTLISFGAFVAKHLKTINQESCIEPLAESITDVLVRTKRDWLVKQRGWDGFVEFFHVEDLEG
notes: human MCL1, UniProt Q07820, residues 163-326, cloned into pET28a; also called recombinant MCL1; source: E. coli BL21 (DE3), purified (nickel chromatography, gel filtration)
B2: FITC-labeled BAK peptide derived from its BH3 sequence (peptide)
peptide: {FITC-Ahx}-GQVGRQLAIIGDDINRRYD
notes: also called F-BAKBH3; FITC-BAK; source: synthetic peptide
B3: RNA recognition motif 1 (RRM1) of polypyrimidine tract binding protein 1 (PTBP1), residues 55-147 (domain or fragment, human, UniProt P26599 55-147, looked up)
chain: GVPSRVIHIRKLPIDVTEGEVISLGLPFGKVTNLLMLKGKNQAFIEMNTEEAANTMVNYYTSVTPVLRGQPIYIQFSNHKELKTDSSPNQARA
notes: human PTBP1 RRM1, UniProt P26599, residues 55-147, cloned into pET28a; 15N-labelled for the NMR experiment; also called PTBP1-RRM1; recombinant wildtype RRM1 protein; source: E. coli BL21 (DE3), purified (nickel chromatography, gel filtration)
B4: FITC-labeled peptide containing the RRM1 rBH3 sequence (peptide)
peptide: {FITC-Ahx}-NTEEAANTMVNYYTSVTPVLRGQ
notes: stretch of PTBP1 RRM1 with the rBH3 motif (E104-Y114) on the alpha2 helix; also called F-RRM1_(rBH3); FITC-RRM1_(rBH3); source: synthetic peptide (GenScript)
B5: MCL1 3'UTR 25-mer RNA (ssRNA)
RNA: ACGCUUCUCUCAGGGAAAAACAUGC

Assays:
[1] = biological target: B3; assay: fluorescence polarisation; competitive FPA: 50 nM RRM1, 0.5 nM FTSC-labeled RNA from the 3'UTR of MCL1 mRNA, MCL1 titrated; 1x PBS pH 7.4, 1% DMSO, background of tRNA; conditions: both partners purified
[2] = biological target: B1; assay: fluorescence polarisation; competitive FPA: 100 nM MCL1, 10 nM FITC-BAK BH3 peptide, unlabeled RRM1 titrated; 1x PBS pH 7.4, 0.1% DMSO; conditions: both partners purified
[3] = biological target: B1; assay: fluorescence polarisation; direct FPA: 10 nM FITC-RRM1_(rBH3) peptide, recombinant MCL1 titrated; 1x PBS pH 7.4, 1% DMSO; conditions: both partners purified
PTBP1 RRM1 = PTBP1 RRM1 (human, UniProt P26599 55-147); assay: fluorescence polarization; tRNA background; 0.5 nM RNA; FP: 1x PBS pH 7.4, 1% DMSO, tRNA background, temperature not stated; EMSA: 10 mM Hepes pH 7.3, 20 mM KCl, 1 mM MgCl2, 1 mM DTT, tRNA (10 ug/ml in Methods, 10 ug/uL in Fig S2 legend), room temperature, 1% TBE agarose; conditions: protein: recombinant; tags: N-terminal His6 (pET28a); label: 3' FTSC (fluorescein-5-thiosemicarbazide); single-stranded, designed as unstructured

Binder: B1
- IC50 [1]: 74.6 ± 37.3 nM

Binder: B2
- binding result [2]: binds

Binder: B3
- IC50 [2]: 88 ± 3 nM

Binder: B4
- Kd [3]: < 10 nM

Binder: B5
- Kd (PTBP1 RRM1): 16.1 ± 7.6 nM

Reference: PMC10244698, “Polypyrimidine tract binding protein 1 (PTBP1) contains a novel regulatory sequence, the rBH3, that binds the prosurvival protein MCL1” (The Journal of Biological Chemistry, 2023)
